# Measured values taken from publication PMC3317640, “A Novel Enzymatic System against Oxidative Stress in the Thermophilic Hydrogen-Oxidizing Bacterium Hydrogenobacter thermophilus” (PLoS ONE, 2012).
# B1: ferriperoxin (Fpx) (Hydrogenobacter thermophilus TK-6) (protein)
# chain: MKSLAGTKTLECLKHAFAGESQANRRYLYFARKADIEGYPDIANVFRETAEGETGHAFGHLEFLEKYGGGDPATGKPIGSMEQNLEAAIAGETYEYTEMYPGFAKTAREEGFDDIAEWFETLARAEKSHAGRFQKALESLKA
# notes: full-length untagged (own start and stop codon, pET21c NdeI-HindIII), E. coli BL21(DE3); N-terminus MKSLAGTKTL; diiron holoprotein
# Assays:
# [1] = substrate: CC(C)(C)OO; experiment: hydroperoxide removal, FOX1 (xylenol orange) assay, Michaelis-Menten; format: biochemical, Hydrogenobacter thermophilus; conditions: 0.5 mM NADPH and FNR as electron donor system, 50 mM sodium phosphate pH 6.0, 50°C, anaerobic
# [2] = substrate: CC(C)(OO)c1ccccc1; experiment: as above; format: biochemical, Hydrogenobacter thermophilus; conditions: 0.5 mM NADPH and FNR as electron donor system, 50 mM sodium phosphate pH 6.0, 50°C, anaerobic
protein,measurement,setting,value
B1,Km,[1],1300 ± 300 µM
same,Km,[2],1100 ± 200 µM
